# B1: recombinant human VEGF-A protein (ligand)
# chain: APMAEGGGQNHHEVVKFMDVYQRSYCHPIETLVDIFQEYPDEIEYIFKPSCVPLMRCGGCCNDEGLECVPTEESNITMQIMRIKPHQGQHIGEMSFLQHNKCECRPKKDRARQENPCGPCSERRKHLFVQDPQTCKCSCKNTDSRCKARQLELNERTCRCDKPRR
# Key:
# [1] = molecular target: heavy chain of ranibizumab; experiment: ELISA
# [2] = molecular target: light chain of ranibizumab; experiment: ELISA
binder,measurement,setting,value
B1,binding result,[1],no binding
same,binding result,[2],no binding
